Assay results reported in article PMC5934816.

Molecular target: mLDH, mammalian lactate dehydrogenase (bovine) (UniProt P19858)
Assay: ELONA
Conditions: ELONA: 500 ng immobilized protein; aptamer in HMCKN (2 mM HEPES, 0.2 mM MgCl2, 0.2 mM CaCl2, 0.2 mM KCl, 15 mM NaCl, pH 7.4), 2 h, room temperature; washes …

GCCTGTTGTGAGCCTCCTAACCAGCTCGTAGAAAAAAAAAGATATTGCTTCAATTATCTCCTCGCGTTCAATTAACCCAGCATGCTTATTCTTGTCTCCC [rLDH 4]
binding signal: 0.053 OD450
